Results from publication PMC10418980, “Synthesis and Evaluation of ^177Lu-DOTA-PD-L1-i and ^225Ac-HEHA-PD-L1-i as Potential Radiopharmaceuticals for Tumor Microenvironment-Targeted Radiotherapy” (International Journal of Molecular Sciences, 2023).

How the values were obtained:
[1] = system: mice inoculated with HCC827 lung cancer cells; experiment: Creatinine and liver enzyme levels; assay type: in vivo; conditions: mouse, in vivo
Description: Mouse blood samples collected at 96 h after radiopharmaceutical administration were used for the determination of alanine aminotransferase (ALT), creatinine, and aspartate aminotransferase (AST). Creatinine was measured titrimetrically. The picrate method was used. AST and ALT were quantified using a Roche Diagnostics kit for UV assays.

[2] = Serum stability by radio-HPLC; assay type: in vitro ADME, human
Description: The radiochemical purity of the radioconjugates was determined by reversed-phase HPLC (Waters) with radiometric and UV-vis detectors. The analysis was carried out with a Discovery C18 column (particle size: 5 µm, length: 25 cm, diameter: 4.6 mm). A linear gradient (rate flow: 1 mL/min) of CH3CN-0.1% TFA (B)/H2O-0.1%TFA (A), from 100% to 10% of A in 30 min, was used. For ^225Ac-HEHA-PD-L1-i, fractions of 1.0 mL were collected, and the activity was evaluated in a NaI(Tl) detector (Auto In-v-tron 4010; NML Inc., Houston, TX, USA).
The ^225Ac-HEHA-PD-L1-i and ^177Lu-DOTA-PD-L1-i stability was evaluated in the medium they were obtained after labeling (water/ascorbic acid/sodium acetate) at 0.33, 3, 24, 48, and 72 h with radio-HPLC, as previously described. The conjugate solutions were diluted in human serum (5x) for stability assessment. The conjugates (n = 3) were incubated at 37 °C, and samples were taken at 0.33, 3, 24, 48, and 72 h.

[3] = system: kidney and liver tissues from mice; experiment: Histopathological assessment (H&E); assay type: in vivo; conditions: mouse, in vivo
Description: Healthy lungs, kidneys, liver, and lungs from mice injected i.v. with HCC827 cells were fixed with 4% paraformaldehyde for 24 h at room temperature, embedded in paraffin, and sectioned in 4–5 µm thick sections using a microtome. Paraffin sections of lung samples were deparaffinized in xylene and rehydrated in a series of graded alcohols. Dewaxed tissue sections were stained with hematoxylin and eosin (H&E). The sections were assessed using a light microscope (magnification of 100x) (Zeiss; Mod. Axioscope: Oberkochen, Germany). Images were acquired with a digital camera (5 MP high-speed color; AmScope; Mod.Mu500: Irvine, CA, USA).

[4] = system: mice intravenously injected with HCC827 lung cancer cells (PD-L1+); experiment: Biodistribution and biokinetic models in mice with HCC827 lung micrometastases; assay type: in vivo, Nu/Nu mice; conditions: mouse, in vivo
Description: Under an approved protocol (No. 07-2018-2021), all animal procedures followed the ethical regulations for handling laboratory animals (NOM-062-ZOO-1999) and the Institutional Animal Care and Use Committee requirements. Male Nu/Nu (UPEAL, […], I.PN., Mexico City, Mexico) mice aged 6–8 weeks were maintained in a pathogen-free barrier facility. Mice were injected with 3.7 MBq (50 µL) of ^177Lu DOTA-PD-L1-I or 3.7 kBq (50 µL) of ^225Ac-HEHA-PD-L1-i in the tail vein and sacrificed at 0.5, 1, 3, 24, 72, and 96 h (n = 3). The heart, lungs, liver, pancreas, spleen, kidneys, small intestine, brain, and stomach were dissected to be measured in a NaI(Tl) radioactivity detector. The results are expressed as the percentage of injected dose (%ID) per organ. Blood samples were also extracted, and the activity was recorded as %ID/g. A second group of mice was inoculated intravenously with 1 × 10^6 HCC827 cells. The animals were treated with 3.7 MBq (50 µL) of ^177Lu DOTA-PD-L1-i (n = 3) or 3.7 kBq (50 µL) of ^225Ac-HEHA-PD-L1-i (n = 3) via tail vein injection on day five post-tumor cell inoculation. The animals were dissected as described above. In the case of ^177Lu DOTA-PD-L1-i, radioisotopic/X-ray in vivo/ex vivo images were obtained in a Preclinical Imaging System (Bruker, XTREME). For in vivo imaging, mice were anesthetized with oxygen and 2% isoflurane.
The %ID values were used to obtain the biokinetic models ( qht ). The Ah(t) functions were obtained by decay-correcting the biokinetic models, that is, by adding to the biological constant (λB ) the radioactive constant (λR ), as follows (Equation (1)):(1) At=Be^−(λR+λB)t+Ce^−(λR+λB)t+De^−(λR+λB)t

CCCC[C@H]1C(=O)N(C)[C@@H](CCCC)C(=O)N[C@@H](CCCNC(=S)Nc2ccc(CC3CN(CC(=O)O)CCN(CC(=O)O)CCN(CC(=O)O)CCN(CC(=O)O)CCN(CC(=O)O)CCN3CC(=O)O)cc2)C(=O)N[C@H](C(=O)NCC(N)=O)CSCC(=O)N[C@@H](Cc2ccc(O)cc2)C(=O)N(C)[C@@H](C)C(=O)N[C@@H](CC(N)=O)C(=O)N2CCC[C@H]2C(=O)N[C@@H](Cc2c[nH]cn2)C(=O)N[C@@H](CC(C)C)C(=O)N2C[C@H](O)C[C@H]2C(=O)N[C@@H](Cc2c[nH]c3ccccc23)C(=O)N[C@@H](CO)C(=O)N[C@@H](Cc2cn(C)c3ccccc23)C(=O)N1C (stereo partly drawn) [^225Ac-HEHA-PD-L1-i, metal not drawn]
effect on the function of liver and kidney [1]: No significant cytotoxic effect | radiochemical purity after 72 h in human serum [2]: 64 ± 4% | rate of decrease of radiochemical purity in human serum [2]: approximately 0.388 %/h | histological staining (H&E) of liver and kidney [3]: no pathologic changes in the liver and kidney | Ac-225 activity present in bone [4]: 0.3 ± 0.2 % ID/g | biokinetic model A(t), kidney [4]: 12.60e^-3.65t + 8.14e^-2.54t | biokinetic model A(t), liver [4]: 25.3e^-1.90t + 17.4e^-0.01t | biokinetic model A(t), lung (HCC827 cancer cells) [4]: 11.20e^-0.002t + 1.73e^-1.20t | half-life, kidney, second component [4]: 16.2 min | injected dose in kidney eliminated with half-life 0.19 h [4]: 12.6 % of the injected dose | injected dose in kidney eliminated with half-life 0.27 h [4]: 8.14 % of the injected dose | injected dose retained in liver and eliminated with the slow half-life [4]: 17.4 % of the injected dose | half-life, kidney, fast phase ([4]; iv): 11.4 min | half-life, liver, slow phase ([4]; iv): 69.3 h | uptake in lung micrometastases ([4]; iv): > 30 % ID
